For test [1], the target named is T1, human ferroportin 1 (human, UniProt Q9NP59 1-571).
T1 sequence: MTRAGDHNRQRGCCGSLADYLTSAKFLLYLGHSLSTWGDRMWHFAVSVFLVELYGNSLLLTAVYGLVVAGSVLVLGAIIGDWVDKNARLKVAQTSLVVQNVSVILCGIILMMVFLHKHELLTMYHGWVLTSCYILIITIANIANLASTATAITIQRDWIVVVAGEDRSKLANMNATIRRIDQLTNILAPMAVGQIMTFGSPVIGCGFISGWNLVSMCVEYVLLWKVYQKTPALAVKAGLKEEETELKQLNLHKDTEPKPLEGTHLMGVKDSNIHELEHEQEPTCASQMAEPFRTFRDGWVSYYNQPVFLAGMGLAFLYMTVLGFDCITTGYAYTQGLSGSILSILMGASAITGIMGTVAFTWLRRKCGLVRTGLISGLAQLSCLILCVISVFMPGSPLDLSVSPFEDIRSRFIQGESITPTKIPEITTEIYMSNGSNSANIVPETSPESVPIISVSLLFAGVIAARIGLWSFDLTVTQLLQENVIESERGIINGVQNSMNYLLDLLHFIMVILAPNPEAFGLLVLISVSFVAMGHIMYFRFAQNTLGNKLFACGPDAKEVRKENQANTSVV
The test is described as follows: cell-based or functional assay.

For test [2], the target named is T1, human ferroportin 1. The experiment in a line: inhibition of binding of 30 nM biotinylated hepcidin to FPN/293 cells, ELISA of lysate; antibody at 125 nM; mean. A general note: ELISA stands for enzyme-linked immunosorbent assay.
Procedure: (§1) Next, 65 μL of lysing buffer (0.5% Triton X-100, 10 mM EDTA) are added to all the wells and the plates are shaken for 10 minutes. Next, 50 μL of the solution in each well is transferred to individual wells of a streptavidin coated Greiner microtiter plate (60 μL of 2 μg/mL streptavidin (Sigma, St. Louis, Mo.; catalog no. S4762) in PBS, incubated at 4° C. overnight, washed 2 times (0.1% Tween 20, TBS), blocked with casein/PBS), and then incubated for one hour at room temperature. […] After incubating one hour at room temperature, the plate is washed 4× and 50 μL of OPD substrate (Sigma; catalog no. P6912) is added. The reaction is stopped with 100 μL 1 N HCl after 4 minutes. Absorbance at 490 nm (A₄₉₀) is read using an appropriate ELISA plate reader.
The target of test [3] is T1, human ferroportin 1. The test is described as follows: inhibition of binding of 30 nM biotinylated hepcidin to FPN/293 cells, ELISA of lysate; antibody at 7.8 nM; mean.
Procedure: as §1
For test [4], the target named is T2, human FPN1 C-terminally fused with GFP (human, UniProt Q9NP59 1-571, GFP reporter fused to the C-terminus ("FPN1 is C-terminally fused with GFP"). It is left out because the patent gives no letters for it.).
T2 sequence: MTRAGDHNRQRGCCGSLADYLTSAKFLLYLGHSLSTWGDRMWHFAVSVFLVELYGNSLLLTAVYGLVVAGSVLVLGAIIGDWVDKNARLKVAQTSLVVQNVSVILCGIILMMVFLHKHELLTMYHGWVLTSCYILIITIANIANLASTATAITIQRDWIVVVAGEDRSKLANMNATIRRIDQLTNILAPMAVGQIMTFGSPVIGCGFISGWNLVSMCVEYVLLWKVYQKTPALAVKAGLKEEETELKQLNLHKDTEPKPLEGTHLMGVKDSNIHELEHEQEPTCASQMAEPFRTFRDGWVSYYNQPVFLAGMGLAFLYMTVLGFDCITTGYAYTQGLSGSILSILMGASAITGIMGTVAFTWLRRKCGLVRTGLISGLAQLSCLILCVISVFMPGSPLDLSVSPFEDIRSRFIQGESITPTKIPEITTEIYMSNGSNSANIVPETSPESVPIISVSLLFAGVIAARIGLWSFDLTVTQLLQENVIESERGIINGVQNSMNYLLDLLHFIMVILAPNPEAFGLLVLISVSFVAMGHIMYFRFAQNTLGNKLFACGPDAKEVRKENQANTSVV
The experiment in a line: cell-based or functional assay.

Test [5] concerns the target T1, human ferroportin 1. The experiment in a line: inhibition of binding of 30 nM biotinylated hepcidin to FPN/293 cells, ELISA of lysate; antibody at 31.25 nM; mean.
Procedure: as §1
In test [6] the target is T1, human ferroportin 1. The test is described as follows: inhibition of binding of 30 nM biotinylated hepcidin to FPN/293 cells, ELISA of lysate; antibody at 500 nM; mean.
Procedure: as §1
Test [7] has as its target T1, human ferroportin 1. The experiment in a line: inhibition of binding of 30 nM biotinylated hepcidin to FPN/293 cells, ELISA of lysate; antibody at 2000 nM; mean.
Procedure: as §1
The target in test [8] is T2, human FPN1 C-terminally fused with GFP. The test is described as follows: SPR, Biacore T100, 37 C, 1:1 model; FPN1-GFP captured from cell lysate on rabbit anti-GFP antibody, Fab injected.
Procedure: (§2) The affinities of FPN1 binding Fabs and Mabs may be determined on Biacore T100 and using 1:1 binding model in the Biacore T100 evaluation software (BIAcore® AB, Upsala, Sweden). […] FPN1 is C-terminally fused with GFP. Expression of FPN1-GFP is induced by 1-10 ng/mL doxycycline for 1-24 hours. Induced cells are harvested by scraping off from flasks and then washed with 1×PBS. Cell pellets can be stored at −80° C. before use. About five million induced cells are resuspended in 10 mM phosphate buffer with 0.2% Tween-20 and protease inhibitors, e.g., Complete™ Protease Inhibitor Cocktail Tablet (Roche Diagnostics Corp., Indianapolis, Ind.). Three cycles of freeze/thaw/sonication are used to lyse the cells. The lysate is diluted two-fold with Biacore running buffer and centrifuged to remove debris.
(§3) On Biacore T100, rabbit anti-GFP antibody or goat anti-GFP antibody is immobilized onto flow cell 1 to 4 of a CMS chip at 5000-15000 Rus. FPN1-GFP is captured onto flow cell 2, 3, or 4 from the lysate of induced cells. Flow cell 1 is used as reference. Then all flow cells are injected with different concentrations of antibodies to evaluate the binding and kinetics.
For test [9] the target is unchanged. The experiment in a line: SPR, Biacore T100, 37 C, 1:1 model; FPN1-GFP captured from cell lysate on goat anti-GFP antibody, Fab injected; n = 3. (SPR reads the build-up and loss of mass on a sensor chip optically.)
Procedure: as §2, §3
Test [10] shares this target. The test is described as follows: SPR, Biacore T100, 37 C, 1:1 model; FPN1-GFP captured from cell lysate on goat anti-GFP antibody, Fab injected; n = 4.
Procedure: as §2, §3
Test [11] has the same target. The test is described as follows: SPR, Biacore T100, 25 C, 1:1 model; FPN1-GFP captured from cell lysate on rabbit anti-GFP antibody, Mab injected.
Procedure: as §2, §3
Test [12] shares this target. The experiment in a line: cell-based or functional assay. This is another data set of the same source.

For the molecule Control human IgG4 (antibody), in the test with human ferroportin 1 [1], the Percentage inhibition of mature hepcidin induced increase in cellular ferritin, Caco-2 cells, antibody at 2.22E-7 M came to 24.2%; the Percentage inhibition of mature hepcidin induced increase in cellular ferritin, Caco-2 cells, antibody at 2.47E-8 M is 22.1%; the Percentage inhibition of mature hepcidin induced increase in cellular ferritin, Caco-2 cells, antibody at 2.7E-9 M came to 22.4%; the Percentage inhibition of mature hepcidin induced increase in cellular ferritin, Caco-2 cells, antibody at 3.0E-10 M was 15.5%. In the test with human ferroportin 1 [1], the Percentage inhibition of mature hepcidin induced increase in cellular ferritin, Caco-2 cells, antibody at 6.67E-7 M amounted to 18.7%; the Percentage inhibition of mature hepcidin induced increase in cellular ferritin, Caco-2 cells, antibody at 7.4E-8 M was determined as 21.1%; the Percentage inhibition of mature hepcidin induced increase in cellular ferritin, Caco-2 cells, antibody at 8.0E-9 M turned out to be 16.1%; the Percentage inhibition of mature hepcidin induced increase in cellular ferritin, Caco-2 cells, antibody at 9.0E-10 M turned out to be 17.5%.

B1: Mab L2.2-4 (antibody, human IgG4 S228P, kappa, F234A L235A, V domains shown)
VH: QVQLVQSGAEVKKPGSSVKVSCKASGYAFTSFLIEWVRQAPGQGLEWMGTSNPRTGGRKYKEKFRGRVTITADKSTSTAYMELSSLRSEDTAVYYCAREFFDYWGQGTTVTVSS
VL: DIQMTQSPSSLSASVGDRVTITCRASKSISKYTAWYQQKPGKAPKLLIYAGSKLRSGVPSRFSGSGSGTDFTLTISSLQPEDFATYYCQQHNEYPYTFGGGTKVEIKR
The % Inhibition is the drop in the measured response relative to a control, in per cent. In the case of B1, in the test with human ferroportin 1 [2], the “% Inhibition” value was determined as 76.5%. For the same molecule, in the test with human ferroportin 1 [1], the “EC50 of inhibition of mature hepcidin induced increase in cellular ferritin, Caco-2 cells” value was found to be 193 nM; the “Percentage inhibition of mature hepcidin induced increase in cellular ferritin, Caco-2 cells, Mab at 2.22E-7 M” value was 53.8%; the “Percentage inhibition of mature hepcidin induced increase in cellular ferritin, Caco-2 cells, Mab at 2.47E-8 M” value is 30.1%; the “Percentage inhibition of mature hepcidin induced increase in cellular ferritin, Caco-2 cells, Mab at 2.7E-9 M” value worked out at 39.6%. In addition, in the test with human ferroportin 1 [1], the “Percentage inhibition of mature hepcidin induced increase in cellular ferritin, Caco-2 cells, Mab at 3.0E-10 M” value came out at 24.1%; the “Percentage inhibition of mature hepcidin induced increase in cellular ferritin, Caco-2 cells, Mab at 6.67E-7 M” value turned out to be 61.7%; the “Percentage inhibition of mature hepcidin induced increase in cellular ferritin, Caco-2 cells, Mab at 7.4E-8 M” value is 40.6%; the “Percentage inhibition of mature hepcidin induced increase in cellular ferritin, Caco-2 cells, Mab at 8.0E-9 M” value was found to be 39.5%. In the test with human ferroportin 1 [1], the “Percentage inhibition of mature hepcidin induced increase in cellular ferritin, Caco-2 cells, Mab at 9.0E-10 M” value was determined as 24.4%. In the test with human ferroportin 1 [3], the “% Inhibition” value was -0.1%. In test [4], the “Absolute IC50 of inhibition of hepcidin-25-induced internalization and degradation of FPN1-GFP” value stood at 6.2 nM; the “Relative IC50 of inhibition of hepcidin-25-induced internalization and degradation of FPN1-GFP” value was 4.8 nM; the “Top % Inhibition of hepcidin-25-induced internalization and degradation of FPN1-GFP” value was 81.6%. In the test with human ferroportin 1 [5], the “% Inhibition” value was found to be 27.5%. Besides, in the test with human ferroportin 1 [6], the “% Inhibition” value is 99.8%. In addition, in the test with human ferroportin 1 [7], the “% Inhibition” value is 85.1%.

B2: Fab 3D8 (Fab, V domains shown)
VH: QVQLVQSGAEVKKPGSSVKVSCKASGYAFTSFLIEWVRQAPGQGLEWMGTSNPRTGGTKYKEKFRGRVTITADKSTSTAYMELSSLRSEDTAVYYCAREFFDYWGQGTTVTVSS
VL: DIQMTQSPSSLSASVGDRVTITCRASKSISKYTAWYQQKPGKAPKLLIYAGSKLHSGVPSRFSGSGSGTDFTLTISSLQPEDFATYYCQQHNEYPYTFGGGTKVEIK
notes: Humanized form of mouse Fab 1G9 (VH1-69 and O2 frameworks); also called human 3D8
Broadly, the Kd is the concentration at which binding is half-saturated. A lower Kd goes with higher affinity. For orientation: koff means a measure of how fast the partners let go of each other. Higher therefore signals a short-lived complex. As a reminder, the kon is the second-order rate constant of association. A high value points to faster complex formation. B2: in test [8], the Kd worked out at 10.4 nM, the koff was found to be 0.002 s⁻¹ and the kon was 192000 M⁻¹ s⁻¹. In test [9], this molecule came in with a Kd of 6.29 nM, a koff of 0.00206 s⁻¹ and a kon of 328000 M⁻¹ s⁻¹.

B3: Fab 4A10-3 (Fab, V domains shown)
VH: QVQLVQSGAEVKKPGSSVKVSCKASGYAFTSFLIEWVRQAPGQGLEWMGTSNPRTGGRKYKEKFRGRVTITADKSTSTAYMELSSLRSEDTAVYYCAREFFDYWGQGTTVTVSS
VL: DIQMTQSPSSLSASVGDRVTITCRASKSISKYTAWYQQKPGKAPKLLIYAGSKLHWGVPSRFSGSGSGTDFTLTISSLQPEDFATYYCQQHNEYPYTFGGGTKVEIK
notes: also called human 4A10-3
In [10], B3 returned a dissociation constant Kd of 1.76 nM, an off-rate constant (koff) of 0.00148 s⁻¹ and an on-rate (kon) of 844000 M⁻¹ s⁻¹.

B4: Fab L2.2-4 (Fab, V domains shown)
VH: QVQLVQSGAEVKKPGSSVKVSCKASGYAFTSFLIEWVRQAPGQGLEWMGTSNPRTGGRKYKEKFRGRVTITADKSTSTAYMELSSLRSEDTAVYYCAREFFDYWGQGTTVTVSS
VL: DIQMTQSPSSLSASVGDRVTITCRASKSISKYTAWYQQKPGKAPKLLIYAGSKLRSGVPSRFSGSGSGTDFTLTISSLQPEDFATYYCQQHNEYPYTFGGGTKVEIK
notes: also called human L2.2-4
For B4, in test [9], binding was characterised by a dissociation constant (Kd) of 1.96 nM, the koff is 0.00079 s⁻¹ and the kon is 431000 M⁻¹ s⁻¹.

B5: Fab Combi11 (Fab, V domains shown)
VH: QVQLVQSGAEVKKPGSSVKVSCKASGYAFTSFLIEWVRQAPGQGLEWMGTSNPRTGRTKYKSKFRGRVTITADKSTSTAYMELSSLRSEDTAVYYCAREFFDYWGQGTTVTVSS
VL: DIQMTQSPSSLSASVGDRVTITCRASKSISKYTAWYQQKPGKAPKLLIYAGSKRHWGVPSRFSGSGSGTDFTLTISSLQPEDFATYYCQQHNEYPYTFGGGTKVEIK
notes: also called human Combi11
For B5, in test [9], the Kd was 2.4 nM, the koff was 0.00637 s⁻¹ and the kon is 2.31e+06 M⁻¹ s⁻¹.

B6: Mab 1G9 (antibody, mouse IgG1, kappa, V domains shown)
VH: QVQLKQSGAELVRPGTSVKVSCKASGYAFTSFLIEWLKQRPGQGLEWIGTINPRTGGTKYNEKFRGKATLTADKSSSTAYMQLNSLTSDDSAVYFCVREFFDYWGQGTSLTVSS
VL: ETTVTQSPSYLAASPGETITINCRASKSISKYLAWFQEKPGKTNKLLIYAGSKLHSGIPSRFSGSGSGTDFTLTISSLEPEDFAMYYCFQHNEYPYTFGGGTKLELKR
notes: also called mouse 1G9; murine Mab 1G9
In test [11], B6 registered a Kd of 0.728 nM, a koff of 9.81e-05 s⁻¹ and a kon of 135000 M⁻¹ s⁻¹. Also, in test [12], the “Percent (%) Inhibition of Mature Human Hepcidin-induced Internalization and Degradation, Mab at 7.4 nM” value was 24.3%; the “Percent (%) Inhibition of Mature Human Hepcidin-induced Internalization and Degradation, Mab at 22 nM” value is 49.9%; the “Percent (%) Inhibition of Mature Human Hepcidin-induced Internalization and Degradation, Mab at 67 nM” value stood at 61.8%; the “Percent (%) Inhibition of Mature Human Hepcidin-induced Internalization and Degradation, Mab at 200 nM” value was found to be 62.4%. The “Percent (%) Inhibition of Mature Human Hepcidin-induced Internalization and Degradation, Mab at 600 nM” value in test [12] came to 67.9%. Further, in test [4], the “Absolute IC50 of inhibition of hepcidin-25-induced internalization and degradation of FPN1-GFP” value worked out at 18.8 nM; the “Relative IC50 of inhibition of hepcidin-25-induced internalization and degradation of FPN1-GFP” value was determined as 9.2 nM; the “Top % Inhibition of hepcidin-25-induced internalization and degradation of FPN1-GFP” value was found to be 69%.

B7: Fab 34A9 (Fab, V domains shown)
VH: QVQLKQSGAELVRPGTSVKVSCKASGYAFTNFLIEWLKQRPGQGLEWIGTINPETGGTKYNEKFRGKATLTADKSSSTAYMQLNSLTSDDSAVYFCVREFFDYWGQGTSLTVSS
VL: ETTVTQSPSYLAASPGETITINCRASKSISKYLAWFQEKPGKTNKLLIYAGSTLHSGIPSRFSGSGSGTDFTLTISSLEPEDFAMYYCQQHNEYPYTFGGGTKLELK
notes: Mouse Fab; also called mouse Fab 34A9
Regarding B7, in test [8], the Kd was found to be 41.5 nM, the koff amounted to 0.00262 s⁻¹ and the kon stood at 63200 M⁻¹ s⁻¹.

For the origin of these results see US20130122013A1 (Eli Lilly, published 2013).
